Target: T1, PARK7, endogenous in SN4741 cells (mouse (endogenous in SN4741)), Q99LX0
T1 chain: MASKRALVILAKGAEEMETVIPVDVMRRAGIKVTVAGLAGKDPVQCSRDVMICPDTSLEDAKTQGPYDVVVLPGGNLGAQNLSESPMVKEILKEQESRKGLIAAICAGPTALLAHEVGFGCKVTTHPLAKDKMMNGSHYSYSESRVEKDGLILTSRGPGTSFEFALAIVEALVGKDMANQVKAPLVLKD
Assay: cross-linking
Settings: remark: other sources report otherwise

stoichiometry N: 2
B1: PARK7, endogenous in SN4741 cells, Q99LX0 1-189 (natural protein)
chain: T1 chain

From publication PMC4968227
